Assays:
NaPi2b expressing tumors = test: Phase 1b study of XMT-1536: tumor response per RECIST version 1.1; format: in vivo, human; settings: for decrease in diameter of target lesions: DL4A (20 mg/m^2)
Description: The study presented herein is an open label, multi-center Phase 1b study of XMT-1536 administered as an intravenous infusion once every three or four weeks. The dose escalation (DES) part of the study will establish the maximum tolerated dose (MTD) or recommended Phase 2 dose (RP2D) for XMT-1536 in patients with a number of tumor types likely to express NaPi2b, with a focus on patients with platinum-resistant ovarian cancer and non-squamous non-small cell lung cancer (NSCLC). […] The RP2D may differ from the MTD and may take into account tolerability, pharmacokinetic and pharmacodynamic measures, and efficacy of XMT-1536 based on RECIST 1.1. After the first cycle, patients may continue to receive XMT-1536 until disease progression provided the drug is well-tolerated and patients continue to derive clinical benefit in the opinion of the Investigator. The DES segment of the study utilized an accelerated titration design. The first 3-week cycle of treatment constitutes the dose limiting toxicity (DLT) evaluation period. For the first two dose levels, a minimum of 1 patient was treated at each dose level. If this patient experiences a treatment-emergent adverse event of Grade 2 or higher, 2 additional patients will be added at this dose level, and the study will subsequently follow a 3+3 design, as described below. […] Starting with Dose Level 3, the study will follow a standard 3+3 design, with 3 patients enrolled initially at each dose level. […] However, in the event of 1 DLT, 3 additional patients will be enrolled at the same dose level. Any dose level with 2 or more DLTs will be considered to exceed the MTD and subsequent patients will be enrolled at lower dose level(s). After the first cycle, patients may continue to receive XMT-1536 until disease progression if the drug is well-tolerated and patients continue to derive clinical benefit in the opinion of the Investigator.
All adverse events will be graded according to the National Cancer Institute (NCI) Common Terminology Criteria version (CTCAE v4.03). The observation period for DLTs is 56 days, between Day 1 through end of Cycle 2 which includes the pre-dose assessments before receiving the Cycle 3 dose. In general, adverse events Grade ≥3 are DLTs with modifications for the following criteria: neutropenia hematologic toxicities, gastrointestinal toxicities, hepatic toxicities, and electrolyte imbalances. XMT-1536-related toxicity that delays initiation of Cycle 3 by more than 2 weeks, hospitalization to treat an infusion-related reaction, and any toxicity that prompts modification of the dose to be administered in Cycle 3 are also DLTs. Blood sampling will be performed to determine plasma PK parameters of XMT-1536, its release product auristatin F-HPA, and select metabolites. Testing for anti-drug antibodies (ADA) and neutralizing antibodies (nAb) will be performed. Tumor responses will be Investigator-assessed using Response Evaluation Criteria in Solid Tumors (RECIST), version 1.1, at the end of Cycle 2 and every 2 cycles thereafter.
In both segments of the study assessments with computerized tomography (CT) scans and RECIST version 1.1 criteria are performed at the end of Cycle 2 and at the end of every even-numbered cycle thereafter. Patients are continuously evaluated for adverse events, the use of concomitant medications, and the occurrence of infusion reactions in any cycle. Pharmacokinetic profiles of XMT-1536 and select release products/metabolites and the development of anti-drug antibodies are evaluated. RECIST version 1.1, is used to measure tumor response. The objective response rate (ORR—rate of complete response [CR] and partial response [PR]) and disease control rate (DCR—rate of CR, PR, and stable disease [SD]) will be measured for each cohort. Response duration, progression-free survival (PFS) and overall survival (OS) is estimated.
The primary analysis of efficacy is performed using both DES and EXP data. […]

[1] = Plasma PK profile in patients dosed with XMT-1536; format: in vivo, human; settings: 30 patients, 3 to 40 mg/m^2, total antibody, conjugated drug, free drug, AF
Method: The PK profile of the active ingredient of XMT-1536, its release product and selected metabolites are determined for each patient by non-compartmental analysis using standard PK software (e.g., Phoenix WinNonlin). PK parameters per patient include time of maximum observed concentration (tmax), maximum concentration (Cmax), and area under the concentration curve for the last measurable concentration (AUC0-last). When the terminal elimination phase is identified, additional parameters such as elimination half-life, clearance, and volume of distribution are determined.
The plasma PK profile for the analytes (total antibody; conjugated drug (AF-HPA); free drug (AF-HPA) and the drug metabolite auristatin F (AF)) was determined in blood samples from 30 patients (3 mg/m^2, n=1; 6 mg/m^2, n=1; 12 mg/m^2, n=7; 20 mg/m^2, n=15; 30 mg/m^2, n=5; 40 mg/m^2, n=1). […] The PK characteristics is consistent with that reported for other approved antibody-drug conjugates or those currently in clinical development.

[2] = All NSCLC, N 3, RECIST version 1.1
[3] = All Ovarian Cancer (OC), N 19, RECIST version 1.1
[4] = NSCLC ≥ 20 mg/m^2, N 2, RECIST version 1.1
[5] = OC + NSCLC ≥ 20 mg/m^2, N 18, RECIST version 1.1
[6] = OC ≥ 20 mg/m^2, N 16, RECIST version 1.1
[7] = OC ≥ 30 mg/m^2, N 7, RECIST version 1.1
[8] = ovarian cancer and lung adenocarcinoma, ≥20 mg/m^2 (N=18)

B1: XMT-1536: about 10-15 molecules of auristatin F-hydroxypropyl amide conjugated to a cysteine moiety of NaPi2b monoclonal antibody XMT-1535 via a PHF scaffold (conjugate, chains of the INN, looked up)
VH: QVQLVQSGAEVVKPGASVKMSCKASGYTFTGYNIHWVKQAPGQGLEWIGAIYPGNGDTSYKQKFRGRATLTADTSTSTVYMELSSLRSEDSAVYYCARGETARATFAYWGQGTLVTVSS
VL: DIQMTQSPSSLSASVGDRVTITCSASQDIGNFLNWYQQKPGKTVKVLIYYTSSLYSGVPSRFSGSGSGTDYTLTISSLQPEDFATYYCQQYSKLPLTFGQGTKLELK
modifications: auristatin F-hydroxypropyl amide via PHF scaffold
notes: about 10-15 molecules of auristatin F-hydroxypropyl amide conjugated to a cysteine moiety of NaPi2b monoclonal antibody XMT-1535 via a PHF scaffold
DCR (PR + SD) (NaPi2b expressing tumors; All NSCLC, N 3): 67% | DCR (PR + SD), patients (NaPi2b expressing tumors; All NSCLC, N 3): 2 | PD (NaPi2b expressing tumors; [2]): 33% | PD, patients (NaPi2b expressing tumors; [2]): 1 | PR (NaPi2b expressing tumors; [2]): 0 (0%) | PR, patients (NaPi2b expressing tumors; [2]): 0 (0%) | DCR (PR + SD) (NaPi2b expressing tumors; All Ovarian Cancer (OC), N 19): 58% | DCR (PR + SD), patients (NaPi2b expressing tumors; All Ovarian Cancer (OC), N 19): 11 | PD (NaPi2b expressing tumors; [3]): 42% | PD, patients (NaPi2b expressing tumors; [3]): 8 | PR (NaPi2b expressing tumors; [3]): 16% | PR, patients (NaPi2b expressing tumors; [3]): 3 | patients who reached partial remission (NaPi2b expressing tumors; DL 4A): one | DCR (PR + SD) (NaPi2b expressing tumors; NSCLC ≥ 20 mg/m^2, N 2): 100% | DCR (PR + SD), patients (NaPi2b expressing tumors; NSCLC ≥ 20 mg/m^2, N 2): 2 | PD (NaPi2b expressing tumors; [4]): 0 (0%) | PD, patients (NaPi2b expressing tumors; [4]): 0 (0%) | PR (NaPi2b expressing tumors; [4]): 0 (0%) | PR, patients (NaPi2b expressing tumors; [4]): 0 (0%) | DCR (PR + SD) (NaPi2b expressing tumors; OC + NSCLC ≥ 20 mg/m^2, N 18): 61% | DCR (PR + SD), patients (NaPi2b expressing tumors; OC + NSCLC ≥ 20 mg/m^2, N 18): 11 | PD (NaPi2b expressing tumors; [5]): 39% | PD, patients (NaPi2b expressing tumors; [5]): 7 | PR (NaPi2b expressing tumors; [5]): 17% | PR, patients (NaPi2b expressing tumors; [5]): 3 | DCR (PR + SD) (NaPi2b expressing tumors; OC ≥ 20 mg/m^2, N 16): 57% | DCR (PR + SD), patients (NaPi2b expressing tumors; OC ≥ 20 mg/m^2, N 16): 9 | PD (NaPi2b expressing tumors; [6]): 43% | PD, patients (NaPi2b expressing tumors; [6]): 7 | PR (NaPi2b expressing tumors; [6]): 19% | PR, patients (NaPi2b expressing tumors; [6]): 3 | DCR (PR + SD) (NaPi2b expressing tumors; OC ≥ 30 mg/m^2, N 7): 71% | DCR (PR + SD), patients (NaPi2b expressing tumors; OC ≥ 30 mg/m^2, N 7): 5 | PD (NaPi2b expressing tumors; [7]): 28% | PD, patients (NaPi2b expressing tumors; [7]): 2 | PR (NaPi2b expressing tumors; [7]): 28% | PR, patients (NaPi2b expressing tumors; [7]): 2 | dose response of best response by RECIST (waterfall plot) (NaPi2b expressing tumors; change in tumor size by dose level): there appears to be a dose response | anti-tumor activity (NaPi2b expressing tumors; conclusions): early signs of anti-tumor activity | objective responses (NaPi2b expressing tumors; doses of 20 mg/m^2 and higher): Objective responses have been observed | clinical activity based on objective responses and duration of treatment (NaPi2b expressing tumors; doses of 20 mg/m^2 or higher): clinical activity was observed | DCR (NaPi2b expressing tumors; [8]): 61% | ORR (NaPi2b expressing tumors; [8]): 17% | PRs (NaPi2b expressing tumors; [8]): 17% | PRs, patients (NaPi2b expressing tumors; [8]): 3 | SDs (NaPi2b expressing tumors; [8]): 44% | SDs, patients (NaPi2b expressing tumors; [8]): 8 | disease control rate (NaPi2b expressing tumors; patients treated with at least 12 mg/m^2, every three weeks, RECIST version 1.1): 67% | decrease in diameter of target lesions (NaPi2b expressing tumors; person, platinum-resistant high-grade serous ovarian cancer, end of Cycle 2): 40% | decrease in diameter of target lesions (NaPi2b expressing tumors; same patient, end of Cycle 3): 75% | patients who reached nearly partial remission (NaPi2b expressing tumors; starting at DL 5): two | patients with stable disease (SD) as best response (NaPi2b expressing tumors; ten patients with post-treatment restaging scans, as of February 2019): 9 | outcome by dose level (swimmers plot) (NaPi2b expressing tumors; time on study by dose level and tumor type): At lower doses the majority of patients came off study because of progressive disease, but starting at DL4, most patients had stable disease | exposure with increasing doses, normalized to dose [1]: nearly dose proportional

Source: patent US11407825B2, “NaPi2b-targeted polymer antibody-drug conjugates and methods of use thereof” (Mersana Therapeutics, Inc., priority 2018, dated 2022)
